Measured values reported in patent US20150290289, “METHOD OF PROMOTING WOUND HEALING” (Agency for Science, Technology and Research, published 2015).

Tests used:
KSRP (KHSRP) [1] = biological target: T1, KSRP (KHSRP) (UniProt Q92945 Q92945:2-711); assay: EMSA; 0.5 uM KSRP, 5 mM MgCl2, 50 mM KCl, yeast tRNA, pH 7.4, room temperature; details: tags: recombinant, Origene; label: 32P-UTP; hairpin
T1 sequence: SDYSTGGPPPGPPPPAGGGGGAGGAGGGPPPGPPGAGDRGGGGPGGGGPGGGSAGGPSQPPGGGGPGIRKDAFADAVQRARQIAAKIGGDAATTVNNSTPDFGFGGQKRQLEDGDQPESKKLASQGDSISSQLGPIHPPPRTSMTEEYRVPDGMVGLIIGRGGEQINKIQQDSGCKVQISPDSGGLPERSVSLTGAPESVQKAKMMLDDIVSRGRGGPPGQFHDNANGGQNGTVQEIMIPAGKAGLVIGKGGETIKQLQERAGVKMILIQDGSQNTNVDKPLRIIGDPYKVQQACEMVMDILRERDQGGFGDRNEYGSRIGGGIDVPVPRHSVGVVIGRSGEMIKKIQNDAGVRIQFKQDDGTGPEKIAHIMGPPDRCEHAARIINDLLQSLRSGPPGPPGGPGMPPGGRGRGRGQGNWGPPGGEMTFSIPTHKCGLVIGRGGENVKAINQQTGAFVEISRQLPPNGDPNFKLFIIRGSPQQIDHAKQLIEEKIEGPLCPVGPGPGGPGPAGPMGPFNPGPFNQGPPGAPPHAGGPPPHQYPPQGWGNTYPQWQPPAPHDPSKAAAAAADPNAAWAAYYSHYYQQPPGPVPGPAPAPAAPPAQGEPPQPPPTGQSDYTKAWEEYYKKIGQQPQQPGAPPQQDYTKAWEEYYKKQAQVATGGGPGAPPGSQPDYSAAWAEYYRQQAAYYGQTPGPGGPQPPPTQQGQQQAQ
Procedure: (§1) The pre-miR-198 substrate for gel retardation assay was prepared as described above. Pre-miR-198 transcripts with mutated terminal loop and stem sequences (FIG. 11B) were generated by mutating the parental plasmid (pBSKS) constructs with Quickchange site directed mutagenesis Kit (Stratagene). Recombinant KSRP protein (0.5 μM) was incubated with the wild type or mutant pre-miR-198 transcripts in 20 μl of reaction buffer containing 30 mM Tris HCl, pH 7.4, 5 mM MgCl₂, 50 mM KCl, 0.5 mM DTT, 40 u/ml of RNaseOUT, 250 μg/ml of yeast tRNA and 10% glycerol. After 30 min at room temperature, reaction products were resolved through 6% native polyacrylamide gel electrophoresis. Gel was dried and the protein RNA complex and unbound RNA were visualized by phosphorimaging.

KSRP (KHSRP) [2] = biological target: T1, KSRP (KHSRP); assay: EMSA; binding abrogated; 0.5 uM KSRP; details: tags: recombinant, Origene; label: 32P-UTP; hairpin
Procedure: as §1

B1: pre-miR-198 wild type (ssRNA)
RNA: UCAUUGGUCCAGAGGGGAGAUAGGUUCCUGUGAUUUUUCCUUCUUCUCUAUAGAAUAAAUGA
binding result (KSRP (KHSRP) [1]): binds

B2: pre-miR-198 Mut-1 (ssRNA)
RNA: UCAUUGGUCCAGAGGGGAGAUAGGUUCCUCUCAUUUUUCCUUCUUCUCUAUAGAAUAAAUGA
modifications: [NONE]
binding result (KSRP (KHSRP) [2]): no binding
